Target: T1, Protein L (recombinant protein L immobilized on a matrix; HiTrap Protein L, GE Healthcare) (Finegoldia magna)
T1 construct: also called Protein L resin; Finegoldia magna Protein L
T1 chain: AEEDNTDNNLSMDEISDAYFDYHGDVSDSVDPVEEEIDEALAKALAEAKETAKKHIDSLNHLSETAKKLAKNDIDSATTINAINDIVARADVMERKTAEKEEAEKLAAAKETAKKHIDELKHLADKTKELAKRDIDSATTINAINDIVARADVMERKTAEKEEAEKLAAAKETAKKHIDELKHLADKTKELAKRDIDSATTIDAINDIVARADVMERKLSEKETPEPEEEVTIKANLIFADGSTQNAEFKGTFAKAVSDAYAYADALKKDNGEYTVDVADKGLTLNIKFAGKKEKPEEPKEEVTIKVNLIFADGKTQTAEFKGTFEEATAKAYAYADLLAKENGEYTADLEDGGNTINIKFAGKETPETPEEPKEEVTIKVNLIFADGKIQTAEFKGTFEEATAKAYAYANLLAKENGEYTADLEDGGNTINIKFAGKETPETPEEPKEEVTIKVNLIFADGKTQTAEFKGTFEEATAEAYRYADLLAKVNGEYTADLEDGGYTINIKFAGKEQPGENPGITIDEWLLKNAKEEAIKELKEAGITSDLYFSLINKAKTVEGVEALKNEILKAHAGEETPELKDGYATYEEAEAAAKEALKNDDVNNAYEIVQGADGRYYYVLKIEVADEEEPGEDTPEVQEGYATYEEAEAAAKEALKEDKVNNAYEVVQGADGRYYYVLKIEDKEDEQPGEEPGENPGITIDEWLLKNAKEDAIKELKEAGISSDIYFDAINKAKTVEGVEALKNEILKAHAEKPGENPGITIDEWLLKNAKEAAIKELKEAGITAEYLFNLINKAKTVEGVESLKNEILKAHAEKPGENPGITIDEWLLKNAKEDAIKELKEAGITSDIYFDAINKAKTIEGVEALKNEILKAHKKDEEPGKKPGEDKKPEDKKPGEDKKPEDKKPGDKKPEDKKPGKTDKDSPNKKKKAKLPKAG
Assay: HiTrap Protein L (5 mL) chromatography of purified antibody, step elution at pH 3.5, 3.0 and 2.5, A280 trace
Protocol: 10 mL of the supernatant was loaded onto the HiTrap Protein L column. […] The column was washed with PBS and specifically bound material was eluted sequentially with 0.1 M glycine-HCl pH 3.5, 3.0 and 2.5 and neutralized with a few drops of 2M Tris pH 9.0. The column was washed using 15 mM sodium hydroxide.

B1: IgG1-2F8-F405L-S12P (antibody, name in EU numbering)
heavy: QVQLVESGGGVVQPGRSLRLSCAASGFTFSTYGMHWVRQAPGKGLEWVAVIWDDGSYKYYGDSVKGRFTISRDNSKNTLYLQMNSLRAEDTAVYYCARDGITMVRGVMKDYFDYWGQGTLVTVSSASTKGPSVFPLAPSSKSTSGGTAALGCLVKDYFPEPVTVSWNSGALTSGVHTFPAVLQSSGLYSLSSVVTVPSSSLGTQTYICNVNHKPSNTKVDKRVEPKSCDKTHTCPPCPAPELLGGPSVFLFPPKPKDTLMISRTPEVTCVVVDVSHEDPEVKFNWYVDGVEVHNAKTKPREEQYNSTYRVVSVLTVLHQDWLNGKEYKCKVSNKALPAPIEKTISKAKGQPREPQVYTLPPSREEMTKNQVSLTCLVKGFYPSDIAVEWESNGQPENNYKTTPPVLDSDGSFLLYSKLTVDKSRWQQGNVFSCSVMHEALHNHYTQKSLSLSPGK
light: AIQLTQSPSSLPASVGDRVTITCRASQDISSALVWYQQKPGKAPKLLIYDASSLESGVPSRFSGSESGTDFTLTISSLQPEDFATYYCQQFNSYPLTFGGGTKVEIKRTVAAPSVFIFPPSDEQLKSGTASVVCLLNNFYPREAKVQWKVDNALQSGNSQESVTEQDSKDSTYSLSSTLTLSKADYEKHKVYACEVTHQGLSSPVTKSFNRGEC
notes: IgG1m(f), kappa; also called IgG-2F8-F405L-S12P; IgG1-2F8-S12P
  binding result: no binding
